This is an account of results in patent publication US20020192789A1 (published 2002).

First the molecules themselves.
B1: phage isolate 5-F08 display polypeptide (unselected control) (other)
chain: AEWHPQFSSPSASRPSEGPCHPQFPRCYIENLDEFRPGGSGGAVLSNVMHSDDWTGAQSDGGGSTEHAEGGSADPSYIEGRIVGSA
notes: not shown: M13 phage gene III protein; the display polypeptide is fused to its N-terminus
B2: phage isolate 5-H11 display polypeptide (other)
chain: AEWHPQFSSPSASRPSEGPCHPQFPRCYIENLDEFRPGGSGGMGDDDDKIYVYKTGAQSDGGGSTEHAEGGSADPSYIEGRIVGSA
notes: The printed 13-mer is used instead; also called 05-H11; not shown: M13 phage gene III protein; the display polypeptide is fused to its N-terminus
B3: phage isolate 5-A11 display polypeptide (other)
chain: AEWHPQFSSPSASRPSEGPCHPQFPRCYIENLDEFRPGGSGGDLNDVYSERMAMWGAQSDGGGSTEHAEGGSADPSYIEGRIVGSA
notes: The printed 13-mer is used instead; also called 05-A11; not shown: M13 phage gene III protein; the display polypeptide is fused to its N-terminus
B4: phage isolate 5-B05 display polypeptide (other)
chain: AEWHPQFSSPSASRPSEGPCHPQFPRCYIENLDEFRPGGSGGSLDDDRTVSPKFWGAQSDGGGSTEHAEGGSADPSYIEGRIVGSA
notes: The printed 13-mer is used instead; also called 05-B05; not shown: M13 phage gene III protein; the display polypeptide is fused to its N-terminus
B5: phage isolate 5-A01 display polypeptide (other)
chain: AEWHPQFSSPSASRPSEGPCHPQFPRCYIENLDEFRPGGSGGDRMYQLDKTGFMIGAQSDGGGSTEHAEGGSADPSYIEGRIVGSA
notes: as for B1
B6: phage isolate 5-A08 display polypeptide (other)
chain: AEWHPQFSSPSASRPSEGPCHPQFPRCYIENLDEFRPGGSGGDMFSEEDRMMQMQGAQSDGGGSTEHAEGGSADPSYIEGRIVGSA
notes: The printed 13-mer is used instead; also called 05-A08; not shown: M13 phage gene III protein; the display polypeptide is fused to its N-terminus

The first experiment deals with T1, streptavidin (UniProt P22629 37-163, limits assumed).
T1 construct: Commercial immobilized streptavidin; the construct is not described; also called Sv; immobilized streptavidin
T1 sequence (P22629 37-163 limits assumed): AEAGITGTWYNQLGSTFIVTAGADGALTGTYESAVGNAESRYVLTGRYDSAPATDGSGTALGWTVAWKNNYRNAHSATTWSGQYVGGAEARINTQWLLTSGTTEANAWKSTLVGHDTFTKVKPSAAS
The experiment can be described thus: phage ELISA, phage bound to immobilized streptavidin.
Turning to B1, the binding result is “binds”. Take B2: the binding result is “binds”. As to B3, the binding result is given as “binds”. Consider B4, for which the binding result is on record as “binds”. On the same count and under the same terms, the entry for B5 is “binds”; for B6 it is “binds”.

The target of another experiment is recombinant light chain enterokinase (Novagen, Madison, Wis.) (UniProt P98072 801-1035). The experiment is described as follows: cell-based or functional assay.
Chain of recombinant light chain enterokinase (Novagen, Madison, Wis.) (P98072 801-1035 limits assumed): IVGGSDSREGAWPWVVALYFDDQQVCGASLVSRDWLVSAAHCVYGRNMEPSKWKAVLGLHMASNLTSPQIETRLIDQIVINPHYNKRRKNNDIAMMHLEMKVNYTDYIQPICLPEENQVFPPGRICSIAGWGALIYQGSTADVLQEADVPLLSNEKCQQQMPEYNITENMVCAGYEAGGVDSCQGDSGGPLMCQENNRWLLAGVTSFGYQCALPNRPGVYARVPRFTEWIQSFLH
With DINDDRSLF, the “test peptide rate (Va), in competition with reference peptide GDDDDK-βNA” value (shortened to “test peptide rate (Va), in competition”) came to 0.18.

GDDDDKIYV [GDDDDKIYV (positive control test peptide)]: the “test peptide rate (Va), in competition” value came out at 0.028. In the case of GNYTDRMFI, the “test peptide rate (Va), in competition” value came to 0.038.
